Series [1] has as its target T1, Dom34 E21A (Candida albicans, UniProt A0A1D8PSD0 1-393, E21A). Nature of the series: EMSA; heparin challenge 50 ng/ul; apparent KD; UTR/6S EMSA: 10 mM Tris-HCl pH 8.0, 100 mM NaCl, 30 C 10 min, then heparin 50 ng/ul 10 min, native 5% PAGE (legend 6%); oligo EMSA: LightShift RNA EMSA kit, room temperature 20 min; footprint: RNase 1 min at 37 C. The note with it: protein: recombinant; tags: C-terminal His6; label: 3'-32P-pCp; single strand with predicted paired regions.

For series [2], the target named is T2, Dom34 (Candida albicans, UniProt A0A1D8PSD0 1-393). Kind of series: EMSA; heparin challenge; binding visible above 0.3 uM, no free RNA at 2.5 uM (bound or degraded); lower affinity than E21A; UTR/6S EMSA: 10 mM Tris-HCl pH 8.0, 100 mM NaCl, 30 C 10 min, then heparin 50 ng/ul 10 min, native 5% PAGE (legend 6%); oligo EMSA: LightShift RNA EMSA kit, room temperature 20 min; footprint: RNase 1 min at 37 C. To be noted: protein: recombinant; tags: C-terminal His6; label: 3'-32P-pCp; single strand with predicted paired regions.

For a further series, the target named is Dom34 N317A (Candida albicans, UniProt A0A1D8PSD0 1-393, N317A). Kind of series: EMSA; 400 nM protein, 20 nM RNA; as wild type; UTR/6S EMSA: 10 mM Tris-HCl pH 8.0, 100 mM NaCl, 30 C 10 min, then heparin 50 ng/ul 10 min, native 5% PAGE (legend 6%); oligo EMSA: LightShift RNA EMSA kit, room temperature 20 min; footprint: RNase 1 min at 37 C. To be noted: protein: recombinant; tags: C-terminal His6; label: 3'-biotin; single strand.

The target of series [3] is T1, Dom34 E21A. Kind of series: EMSA; 400 nM protein, 20 nM RNA; enhanced vs wild type; UTR/6S EMSA: 10 mM Tris-HCl pH 8.0, 100 mM NaCl, 30 C 10 min, then heparin 50 ng/ul 10 min, native 5% PAGE (legend 6%); oligo EMSA: LightShift RNA EMSA kit, room temperature 20 min; footprint: RNase 1 min at 37 C. To be noted: protein: recombinant; tags: C-terminal His6; label: 3'-biotin; single strand.

The target of series [4] is T2, Dom34. Kind of series: EMSA; 400 nM protein, 20 nM RNA; complex I, plus II with 0.05% lauryl sarcosinate; UTR/6S EMSA: 10 mM Tris-HCl pH 8.0, 100 mM NaCl, 30 C 10 min, then heparin 50 ng/ul 10 min, native 5% PAGE (legend 6%); oligo EMSA: LightShift RNA EMSA kit, room temperature 20 min; footprint: RNase 1 min at 37 C. To be noted: protein: recombinant; tags: C-terminal His6; label: 3'-biotin; single strand.

The values that follow come from publication PMC5074521, “Dom34 Links Translation to Protein O-mannosylation”.

B1: PMT1 5'-UTR RNA (full) (structured_RNA)
RNA: GGCAAGAUUCUUUUUCAAGAUUUUUCAUUUUUACAACAACAACAACAACCACCACAACCACAACUAUAAACAAUUGAUAUAGCAUUAUCUUUUAAGAUUAUUGAAUAAAGGUCAAUUUAUAGCGCCCCCCCUCACUCCACCUCCUACCGUCUUUCUUUCACGCAACUAAAACAAAUUUUUAUAUUUUUAUUUUUAUUUUUAUUUUAGUUUCCCAUUCAAUAGAUC
As to B1, the Kd with Dom34 E21A [1] is around 100 nM. Besides, in the series with Dom34 [2], the binding result was “binds”.

B2: PMT1 5'-UTR RNA oligonucleotide (ssRNA)
RNA: ACAACAACAACAACAACCACCACAACCACAACUAUAAACAAU
Turning to B2, the binding result with Dom34 N317A, with Dom34 E21A [3] and in the series with Dom34 [4] was “binds” in each case.
